Experimental data published in publication PMC5431190, “Investigation of cationicity and structure of pseudin-2 analogues for enhanced bacterial selectivity and anti-inflammatory activity” (Scientific Reports, 2017).

B1: Ps-K18 (peptide)
peptide: GLNALKKVFQGIHEAIKKINNHVQ
notes: source: synthetic peptide (solid-phase, Fmoc; reversed-phase HPLC, purity >95%)
B2: Ps-K14-K18 (peptide)
peptide: GLNALKKVFQGIHKAIKKINNHVQ
notes: as for B1
B3: Pseudin-2 (peptide)
peptide: GLNALKKVFQGIHEAIKLINNHVQ
notes: as for B1

Tests used:
[1] = LPS neutralization (LAL assay); format: biochemical
Protocol: LPS neutralization by the peptides were measured using LAL-QCL-1000^TM (Lonza, USA) kit using a modified protocol as described previously. The interaction between each peptide and FITC-LPS was monitored according to the change in fluorescence intensity (excitation = 480 nm, emission = 515 nm). Peptides and 0.5 μg/ml FITC-LPS were prepared in 10 mM phosphate buffer (pH 6.0). The binding between rhTLR4 (from R&D systems, Minneapolis, USA) or rhMD2 (R&D systems, Minneapolis, USA) and peptides was determined using the BLItz system (ForteBio, Menlo Park, CA)[53]. A Ni-NTA sensor was used to detect rhTLR4 and rhMD2 binding. Before the binding assay, the biosensor was hydrated for 10 min in PBS. An initial baseline of 15 s, loading for 60 s, baseline for 30 s, association for 60 s and dissociation for 60 s were used for measurement.

[2] = biological target: T1, rhTLR4 (recombinant human Toll-like receptor 4) (human, UniProt O00206 24-631); test: BLI; BLItz system (ForteBio); rhTLR4 loaded on a Ni-NTA sensor, various amounts of peptide applied; biosensor hydrated 10 min in PBS; baseline 15 s, loading 60 s, baseline 30 s, association 60 s, dissociation 60 s; conditions: both partners purified
T1 construct: Toll-like receptor 4, recombinant human (rhTLR4), bought; No catalogue number is printed; source: bought: R&D systems, Minneapolis, USA
T1 sequence (O00206 24-631): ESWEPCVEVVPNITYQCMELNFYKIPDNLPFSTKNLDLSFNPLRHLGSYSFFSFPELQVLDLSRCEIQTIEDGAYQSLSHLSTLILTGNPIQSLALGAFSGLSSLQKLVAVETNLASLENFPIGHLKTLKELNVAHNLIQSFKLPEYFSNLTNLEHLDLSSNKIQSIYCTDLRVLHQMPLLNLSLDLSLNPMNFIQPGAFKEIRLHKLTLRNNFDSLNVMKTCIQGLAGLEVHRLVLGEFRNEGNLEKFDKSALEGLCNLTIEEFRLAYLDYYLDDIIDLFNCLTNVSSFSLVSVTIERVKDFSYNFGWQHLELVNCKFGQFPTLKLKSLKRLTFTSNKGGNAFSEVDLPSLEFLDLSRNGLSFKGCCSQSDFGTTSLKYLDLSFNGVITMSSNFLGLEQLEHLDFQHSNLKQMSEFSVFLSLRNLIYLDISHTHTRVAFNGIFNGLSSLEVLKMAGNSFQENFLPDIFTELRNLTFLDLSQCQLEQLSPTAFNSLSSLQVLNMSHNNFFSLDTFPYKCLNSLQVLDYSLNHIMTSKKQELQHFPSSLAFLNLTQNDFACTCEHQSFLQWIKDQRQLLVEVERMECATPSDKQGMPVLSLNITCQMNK

Molecule	LPS neutralization (control peptide) [1]	Kd [2] [nM]
LL-37	high LPS neutralization	–
B1	–	1500
B2	–	6900
B3	–	800
